According to paper PMC4856479:

Tests used:
[1] = target: isolated HOIP-RBR/UbcH5B~ubiquitin complex (UniProt Q96EP0); experiment: AUC
[2] = target: isolated HOIP-RBR/UbcH5B~ubiquitin complex (UniProt Q96EP0); experiment: ITC

Row | stoichiometry N [1] | Kd [2] [µM] | Substance
1 | 2 | – | isolated HOIP-RBR/UbcH5B~ubiquitin complex (from UniProt Q96EP0 696-1072; P62837 2-147; P0CG48 1-76)
2 | – | > 50 | mono-ubiquitin (untagged, native N- and C-termini) (from UniProt P0CG48 1-76) (natural protein)
